Values quoted from earlier work, collected in US5397694A, “Protease inhibitor” (Merck Patent GmbH, priority 1989, dated 1995).

B1: Eglin C: Eglin variant with tyrosine where Eglin B has histidine (protein, UniProt P01051 1-70, looked up)
Eglin C: TEFGSELKSFPEVVGKTVDQAREYFTLHYPQYDVYFLPEGSPVTLDLRYNRVRVFYNPGTNVVNHVPHVG
  isoelectric point (pI), published report: 6.45
